Results published in patent publication US20260242478A1 (published 2026).
Where no end group is shown, it is not given here.

The binders below were run against T1, 006 PSMA Fab (assay: clonal phage ELISA on biotinylated anti-PSMA Fab captured on neutravidin, anti-M13 HRP detection).
T1 construct: also called Anti-PSMA Fab
Procedure: (§1) Clonal phage were harvested as crude supernatants and screened via standard ELISAs. […] Prior to the addition of clonal phage. wells were incubated with blocking buffer and PSMA antigen or blocking buffer alone. Without washing or aspirating, clonal phage supernatants were then added to the wells and incubated for a short time. Wells were then washed followed by detection of bound phage using a horse radish conjugated anti-M13 antibody.
In the case of VSPSCVPPWMCVGF [Phage-3531], the “phage binding ELISA signal” value is reported as 1.66.
With VVRHCVPTWMCTGF [Phage-3532] the “phage binding ELISA signal” value was 1.66.

The binders below were run against T2, 006 PSMA Fab (assay: clonal phage ELISA; biotinylated PSMA Fab on neutravidin plate, bound phage detected with anti-M13-HRP).
T2 construct: also called Anti-PSMA Fab
Procedure: as §1
In the case of GPKLCLPMWMCQGF [Phage-4009], the “Phage binding ELISA signal, Anti-PSMA Fab” value is reported as 0.459.
In the case of EVKKCVPAWMCESQ [Phage-4004], the “Phage binding ELISA signal, Anti-PSMA Fab” value is reported as 0.542.
For QEMTCVPRWMCSGF [Phage-4000], the “Phage binding ELISA signal, Anti-PSMA Fab” value was 0.566.
For LTSWCVPQWMCDGL [Phage-4005], the “Phage binding ELISA signal, Anti-PSMA Fab” value was 0.523.
In the case of DGLICQPSWMCTGL [Phage-4001], the “Phage binding ELISA signal, Anti-PSMA Fab” value is reported as 0.554.
In the case of DIEVCRPHWMCEGF [Phage-4003], the “Phage binding ELISA signal, Anti-PSMA Fab” value is reported as 0.542.
For VQPWCVPAWMCDGL [Phage-3997], the “Phage binding ELISA signal, Anti-PSMA Fab” value was 0.607.
HVTMCSPNWMCWGL [Phage-4006] was tested, and the “Phage binding ELISA signal, Anti-PSMA Fab” value was 0.485.
PTSFCRPPWMCEGL [Phage-4007] was tested, and the “Phage binding ELISA signal, Anti-PSMA Fab” value was 0.475.
In the case of QMITCQPKWMCEGF [Phage-3998], the “Phage binding ELISA signal, Anti-PSMA Fab” value is reported as 0.589.
In the case of IMQRCEPLWMCSGL [Phage-4008], the “Phage binding ELISA signal, Anti-PSMA Fab” value is reported as 0.471.
With VQRVCVPTWMCDVF [Phage-3999] the “Phage binding ELISA signal, Anti-PSMA Fab” value was 0.584.
MTNMCRPSWMCAVF [Phage-4002] was tested, and the “Phage binding ELISA signal, Anti-PSMA Fab” value was 0.551.
In the case of GTQACVPLWMCEGI [Phage-3996], the “Phage binding ELISA signal, Anti-PSMA Fab” value is reported as 0.62.
With MDVWCVPTWMCQHL [Phage-3995] the “Phage binding ELISA signal, Anti-PSMA Fab” value was 0.627.

The binders below were run against T3, PSMA Fab (assay: phage ELISA; biotinylated PSMA Fab on neutravidin plate, blocking buffer alone; bound phage detected with anti-M13-HRP).
T3 construct: Used biotinylated and captured on neutravidin plates in the phage ELISA; also called Anti-PSMA Fab; 006 PSMA Fab
Procedure: as §1
In the case of VSHHCVPAWMCFGL (also called Peptide-180 library clone) [Phage-3737], the “Phage binding ELISA signal, Anti-PSMA Fab” value is reported as 1.39.
For VQPWCVPSWMCERF (also called Peptide-180 library clone) [Phage-3743], the “Phage binding ELISA signal, Anti-PSMA Fab” value was 1.39.
For YSISCVPQWMCEGF (also called Peptide-180 library clone) [Phage-3742], the “Phage binding ELISA signal, Anti-PSMA Fab” value was 1.39.
In the case of TGMACVPWWMCEGF (also called Peptide-180 library clone) [Phage-3732], the “Phage binding ELISA signal, Anti-PSMA Fab” value is reported as 1.4.
With VNRMCVPVWMCQGF (also called Peptide-180 library clone) [Phage-3739] the “Phage binding ELISA signal, Anti-PSMA Fab” value was 1.39.
With FTAQCVPLWMCLGF (also called Peptide-180 library clone) [Phage-3736] the “Phage binding ELISA signal, Anti-PSMA Fab” value was 1.39.
For LLLRCEPTWMCTGF (also called Peptide-180 library clone) [Phage-3740], the “Phage binding ELISA signal, Anti-PSMA Fab” value was 1.39.
With LYKECVPQWMCSGF (also called Peptide-180 library clone) [Phage-3731] the “Phage binding ELISA signal, Anti-PSMA Fab” value was 1.4.
With ADVRCVPDWMCWGM (also called Peptide-180 library clone) [Phage-3733] the “Phage binding ELISA signal, Anti-PSMA Fab” value was 1.4.
FTARCEPSWMCVGF (also called Peptide-180 library clone) [Phage-3730] was tested, and the “Phage binding ELISA signal, Anti-PSMA Fab” value was 1.41.
QVKYCIPEWMCSSF (also called Peptide-180 library clone) [Phage-3735] was tested, and the “Phage binding ELISA signal, Anti-PSMA Fab” value was 1.4.
For HSVHCVPMWMCTGF (also called Peptide-180 library clone) [Phage-3738], the “Phage binding ELISA signal, Anti-PSMA Fab” value was 1.39.
In the case of WTPLCKPLWMCQGL (also called Peptide-180 library clone) [Phage-3741], the “Phage binding ELISA signal, Anti-PSMA Fab” value is reported as 1.39.
In the case of DYSVCRPAWMCQGF (cysteine pairing not given here; also: fused to phage pIII, also called Peptide-180 library clone) [Phage-3729], the “Phage binding ELISA signal, Anti-PSMA Fab” value is reported as 1.41.
With ELPVCRPSWMCGGL (also called Peptide-180 library clone) [Phage-3734] the “Phage binding ELISA signal, Anti-PSMA Fab” value was 1.4.

What follows are binders tested against T1, 006 PSMA Fab (assay: clonal phage ELISA on captured anti-PSMA Fab; competitor PSMA antigen).
Procedure: as §1
For VSPSCVPPWMCVGF [Phage-3531], the “phage binding ELISA signal with PSMA antigen present” value was 0.0791.
For VVRHCVPTWMCTGF [Phage-3532], the “phage binding ELISA signal with PSMA antigen present” value was 0.102.

What follows are binders tested against T4, PSMA Fab (SEQ ID NOs: 19, 20) (assay: competition ELISA, peptide titrated against 0.3 nM PSMA Fab on captured biotinylated PSMA).
T4 construct: also called 006 PSMA Fab; anti-PSMA Fab
Procedure: The concentration of peptide required to reduce the maximum signal by 50% (IC₅₀) was calculated in Graphpad Prism software.
For ILPCHWYTSDCPQH (cysteine pairing not given here; also: biotinylated (site not given here), PSMA peptide mask (P2)) [Peptide-200], the IC50 was 12.2 µM.
Binder DCHWNKATWWMDCE (cysteine pairing not given here; also: biotinylated, site not given here, PSMA peptide mask (P2)) [Peptide-207] has an IC50 of 9.86 µM.
With QCVWDNFNYWMDCD (cysteine pairing not given here; also: biotinylated (site not given here), PSMA peptide mask (P2)) [Peptide-203] the IC50 was 36.1 µM.
LTRCVPDWMCYRAV (cysteine pairing not given here; also: biotinylated (site not given here), PSMA peptide mask (P2)) [Peptide-198] showed an IC50 of 18.9 µM.
QLPCHYWGEWCPQA (cysteine pairing not given here; also: biotinylated (site not given here), PSMA peptide mask (P2)) [Peptide-195] was tested, and the IC50 was 19.3 µM.
HCKFHDYHSWYVCY (cysteine pairing not given here; also: biotinylated, site not given here, PSMA peptide mask (P2)) [Peptide-212] showed an IC50 of 6.39 µM.
Work on QCVWDLTNYWMNCD (cysteine pairing not given here; also: biotinylated (site not given here), PSMA peptide mask (P2)) [Peptide-206] yielded an IC50 of 28.7 µM.
MCQWDELNYWMDCD (cysteine pairing not given here; also: biotinylated (site not given here), PSMA peptide mask (P2)) [Peptide-202] was tested, and the IC50 was 11 µM.
Binder QCTWNEKTWWMECE (cysteine pairing not given here; also: biotinylated (site not given here), PSMA peptide mask (P2)) [Peptide-204] has an IC50 of 9.07 µM.
MCQWDKINYWMDCD (cysteine pairing not given here; also: biotinylated (site not given here), PSMA peptide mask (P2)) [Peptide-205] gave an IC50 of 5.52 µM.
SKLLCVPPWMCYHV (cysteine pairing not given here; also: biotinylated (site not given here), PSMA peptide mask (P2)) [Peptide-194] was tested, and the IC50 was 10.3 µM.

These binders were tested against T3, PSMA Fab (assay: phage ELISA; biotinylated PSMA Fab on neutravidin plate, pre-incubated with PSMA antigen as competitor; anti-M13-HRP).
Procedure: as §1
For VSHHCVPAWMCFGL (also called Peptide-180 library clone) [Phage-3737], the “Phage binding ELISA signal, Anti-PSMA Fab in presence of PSMA antigen” value (shortened to “Phage binding ELISA signal … of PSMA antigen”) was 0.0946.
With VQPWCVPSWMCERF (also called Peptide-180 library clone) [Phage-3743] the “Phage binding ELISA signal … of PSMA antigen” value was 0.312.
In the case of YSISCVPQWMCEGF (also called Peptide-180 library clone) [Phage-3742], the “Phage binding ELISA signal … of PSMA antigen” value is reported as 0.0591.
With TGMACVPWWMCEGF (also called Peptide-180 library clone) [Phage-3732] the “Phage binding ELISA signal … of PSMA antigen” value was 0.0812.
In the case of VNRMCVPVWMCQGF (also called Peptide-180 library clone) [Phage-3739], the “Phage binding ELISA signal … of PSMA antigen” value is reported as 0.0729.
For FTAQCVPLWMCLGF (also called Peptide-180 library clone) [Phage-3736], the “Phage binding ELISA signal … of PSMA antigen” value was 0.0789.
In the case of LLLRCEPTWMCTGF (also called Peptide-180 library clone) [Phage-3740], the “Phage binding ELISA signal … of PSMA antigen” value is reported as 0.0711.
For LYKECVPQWMCSGF (also called Peptide-180 library clone) [Phage-3731], the “Phage binding ELISA signal … of PSMA antigen” value was 0.0798.
For ADVRCVPDWMCWGM (also called Peptide-180 library clone) [Phage-3733], the “Phage binding ELISA signal … of PSMA antigen” value was 0.0602.
In the case of FTARCEPSWMCVGF (also called Peptide-180 library clone) [Phage-3730], the “Phage binding ELISA signal … of PSMA antigen” value is reported as 0.0626.
QVKYCIPEWMCSSF (also called Peptide-180 library clone) [Phage-3735] was tested, and the “Phage binding ELISA signal … of PSMA antigen” value was 0.0671.
For HSVHCVPMWMCTGF (also called Peptide-180 library clone) [Phage-3738], the “Phage binding ELISA signal … of PSMA antigen” value was 0.0781.
WTPLCKPLWMCQGL (also called Peptide-180 library clone) [Phage-3741] was tested, and the “Phage binding ELISA signal … of PSMA antigen” value was 0.16.
With DYSVCRPAWMCQGF (cysteine pairing not given here; also: fused to phage pIII, also called Peptide-180 library clone) [Phage-3729] the “Phage binding ELISA signal … of PSMA antigen” value was 0.0699.
For ELPVCRPSWMCGGL (also called Peptide-180 library clone) [Phage-3734], the “Phage binding ELISA signal … of PSMA antigen” value was 0.0603.

The binders below were run against T2, 006 PSMA Fab (assay: clonal phage ELISA; biotinylated PSMA Fab on neutravidin plate, PSMA antigen as competitor, anti-M13-HRP).
Procedure: as §1
In the case of GPKLCLPMWMCQGF [Phage-4009], the “phage binding ELISA signal (Anti-PSMA Fab, wells pre-incubated with PSMA antigen)” value is reported as 0.0611.
In the case of EVKKCVPAWMCESQ [Phage-4004], the “phage binding ELISA signal (Anti-PSMA Fab, wells pre-incubated with PSMA antigen)” value is reported as 0.0538.
QEMTCVPRWMCSGF [Phage-4000] was tested, and the “phage binding ELISA signal (Anti-PSMA Fab, wells pre-incubated with PSMA antigen)” value was 0.0832.
With LTSWCVPQWMCDGL [Phage-4005] the “phage binding ELISA signal (Anti-PSMA Fab, wells pre-incubated with PSMA antigen)” value was 0.0623.
DGLICQPSWMCTGL [Phage-4001] was tested, and the “phage binding ELISA signal (Anti-PSMA Fab, wells pre-incubated with PSMA antigen)” value was 0.0705.
For DIEVCRPHWMCEGF [Phage-4003], the “phage binding ELISA signal (Anti-PSMA Fab, wells pre-incubated with PSMA antigen)” value was 0.0801.
In the case of VQPWCVPAWMCDGL [Phage-3997], the “phage binding ELISA signal (Anti-PSMA Fab, wells pre-incubated with PSMA antigen)” value is reported as 0.0983.
With HVTMCSPNWMCWGL [Phage-4006] the “phage binding ELISA signal (Anti-PSMA Fab, wells pre-incubated with PSMA antigen)” value was 0.0703.
PTSFCRPPWMCEGL [Phage-4007] was tested, and the “phage binding ELISA signal (Anti-PSMA Fab, wells pre-incubated with PSMA antigen)” value was 0.0592.
For QMITCQPKWMCEGF [Phage-3998], the “phage binding ELISA signal (Anti-PSMA Fab, wells pre-incubated with PSMA antigen)” value was 0.0852.
For IMQRCEPLWMCSGL [Phage-4008], the “phage binding ELISA signal (Anti-PSMA Fab, wells pre-incubated with PSMA antigen)” value was 0.0777.
VQRVCVPTWMCDVF [Phage-3999] was tested, and the “phage binding ELISA signal (Anti-PSMA Fab, wells pre-incubated with PSMA antigen)” value was 0.07.
MTNMCRPSWMCAVF [Phage-4002] was tested, and the “phage binding ELISA signal (Anti-PSMA Fab, wells pre-incubated with PSMA antigen)” value was 0.108.
In the case of GTQACVPLWMCEGI [Phage-3996], the “phage binding ELISA signal (Anti-PSMA Fab, wells pre-incubated with PSMA antigen)” value is reported as 0.0787.
With MDVWCVPTWMCQHL [Phage-3995] the “phage binding ELISA signal (Anti-PSMA Fab, wells pre-incubated with PSMA antigen)” value was 0.119.
